Measured values: US6140129

Tested on: FLP recombinase (Saccharomyces cerevisiae (2-micron plasmid))
Test: cell_activity

## E. coli chromosome without FRT
No chromosomal FRT, 4 experiments
  activity (Tet^R colonies per trial): 0
non-target strain with IPTG, 0 without
  activity (colonies per plate): 1

## minimal wild-type FRT (from pJFS36)
Lambda FRT36 integration at lacZ-FRT with IPTG (39 without), lacY-FRT 206 with and 247 without
  activity (colonies per plate): 139
